Measurements as given in article PMC6262109.
Like-named read-outs stand apart in the source and are kept apart here.

What was measured:
Experiment in all cases: EMSA
FLAG-Dmp1 (Dmp1alpha) = biological target: T1, FLAG-Dmp1 (Dmp1alpha) (UniProt Q8CE22 1-761)
T1 sequence: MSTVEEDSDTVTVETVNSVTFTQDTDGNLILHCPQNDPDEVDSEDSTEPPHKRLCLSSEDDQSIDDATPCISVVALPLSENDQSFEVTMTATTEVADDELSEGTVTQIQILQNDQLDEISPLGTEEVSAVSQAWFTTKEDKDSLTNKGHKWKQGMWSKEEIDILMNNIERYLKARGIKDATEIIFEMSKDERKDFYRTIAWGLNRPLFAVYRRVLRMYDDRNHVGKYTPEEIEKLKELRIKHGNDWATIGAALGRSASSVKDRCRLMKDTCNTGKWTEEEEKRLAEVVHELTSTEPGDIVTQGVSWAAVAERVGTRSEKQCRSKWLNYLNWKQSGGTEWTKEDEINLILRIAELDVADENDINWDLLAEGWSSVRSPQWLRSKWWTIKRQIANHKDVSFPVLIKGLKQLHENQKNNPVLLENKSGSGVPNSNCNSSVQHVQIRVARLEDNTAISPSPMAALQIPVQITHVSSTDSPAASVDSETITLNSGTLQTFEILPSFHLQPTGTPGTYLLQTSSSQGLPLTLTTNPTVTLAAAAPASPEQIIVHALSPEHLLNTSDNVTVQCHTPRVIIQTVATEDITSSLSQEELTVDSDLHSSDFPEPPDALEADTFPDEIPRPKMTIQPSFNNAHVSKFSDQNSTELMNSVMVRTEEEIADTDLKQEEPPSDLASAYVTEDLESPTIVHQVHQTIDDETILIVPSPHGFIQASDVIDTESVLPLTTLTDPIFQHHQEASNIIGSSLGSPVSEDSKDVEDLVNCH

[1] = biological target: T2, FLAG-Dmp1 (Dmp1alpha);p53 (mouse?;, UniProt Q8CE22;P04637 1-761;1-393, |)
[2] = biological target: T2, FLAG-Dmp1 (Dmp1alpha);p53; remark: listed apart in the source
p53 = p53 (UniProt P04637 1-393)

B1: mouse Arf promoter Dmp1 site (dsDNA)
DNA 1: TACCTCGTGGGGCGGATGCACAGAAGCAC
DNA 2: GTGCTTCTGTGCATCCGCCCCACGAGGTA
B1: binds (FLAG-Dmp1 (Dmp1alpha)).

B2: p53-g general p53 consensus (dsDNA)
DNA 1: AGGCATGCCTAGGCATGCCT
DNA 2: AGGCATGCCTAGGCATGCCT
In the case of B2, the binding signal [1] is reported as 6 fold vs p53 alone.

B3: mouse p21Cip1 p53 consensus #2 (dsDNA)
DNA 1: AGACTGGGCATGTCTGGGCA
DNA 2: TGCCCAGACATGCCCAGTCT
For B3, the binding signal [2] was 3 fold vs p53+BSA and the binding result (p53) was “binds”.
